Measurements reported in publication PMC5542437, “Assembly and stoichiometry of the core structure of the bacterial flagellar type III export gate complex” (PLoS Biology, 2017).

T1: FliR-FLAG (Salmonella enterica, UniProt P54702 1-264)
T1 construct: FliR, Salmonella enterica, transmembrane export gate protein; also called FLAG-FliR (as printed in the methods); source: Salmonella SJW1368, pTrc99A-based plasmid, in DDM- or LMNG-solubilised membranes; co-purified (Ni-NTA, anti-FLAG gel, SEC)
T1 sequence: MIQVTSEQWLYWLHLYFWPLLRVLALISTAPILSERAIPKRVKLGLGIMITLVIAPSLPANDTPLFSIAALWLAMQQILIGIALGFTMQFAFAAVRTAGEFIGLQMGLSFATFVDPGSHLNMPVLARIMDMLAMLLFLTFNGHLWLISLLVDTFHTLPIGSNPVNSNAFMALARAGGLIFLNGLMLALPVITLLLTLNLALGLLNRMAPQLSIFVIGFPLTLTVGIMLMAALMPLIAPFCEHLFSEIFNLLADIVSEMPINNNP

T2: FlhB (Salmonella enterica, UniProt P40727 1-383)
T2 construct: FlhB, Salmonella enterica, transmembrane export gate protein; its C-terminal cytoplasmic domain undergoes autocleavage between Asp-269 and Pro270 as printed; source: Salmonella SJW1368, pTrc99A-based plasmid, in DDM- or LMNG-solubilised membranes; co-purified
T2 sequence: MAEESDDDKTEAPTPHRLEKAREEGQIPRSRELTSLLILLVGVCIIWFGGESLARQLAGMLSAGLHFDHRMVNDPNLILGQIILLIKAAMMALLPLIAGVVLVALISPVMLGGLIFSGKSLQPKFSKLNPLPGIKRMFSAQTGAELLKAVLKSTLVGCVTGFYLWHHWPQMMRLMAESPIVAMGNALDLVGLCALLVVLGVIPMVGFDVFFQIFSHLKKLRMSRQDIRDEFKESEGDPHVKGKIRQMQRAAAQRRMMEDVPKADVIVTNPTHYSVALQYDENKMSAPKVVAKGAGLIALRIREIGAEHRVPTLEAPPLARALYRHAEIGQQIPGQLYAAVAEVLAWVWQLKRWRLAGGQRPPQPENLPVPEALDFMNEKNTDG

T3: FlhA (Salmonella enterica, UniProt P40729 1-692)
T3 construct: FlhA, Salmonella enterica, transmembrane export gate protein; source: Salmonella SJW1368, pTrc99A-based plasmid, in DDM- or LMNG-solubilised membranes; co-purified
T3 sequence: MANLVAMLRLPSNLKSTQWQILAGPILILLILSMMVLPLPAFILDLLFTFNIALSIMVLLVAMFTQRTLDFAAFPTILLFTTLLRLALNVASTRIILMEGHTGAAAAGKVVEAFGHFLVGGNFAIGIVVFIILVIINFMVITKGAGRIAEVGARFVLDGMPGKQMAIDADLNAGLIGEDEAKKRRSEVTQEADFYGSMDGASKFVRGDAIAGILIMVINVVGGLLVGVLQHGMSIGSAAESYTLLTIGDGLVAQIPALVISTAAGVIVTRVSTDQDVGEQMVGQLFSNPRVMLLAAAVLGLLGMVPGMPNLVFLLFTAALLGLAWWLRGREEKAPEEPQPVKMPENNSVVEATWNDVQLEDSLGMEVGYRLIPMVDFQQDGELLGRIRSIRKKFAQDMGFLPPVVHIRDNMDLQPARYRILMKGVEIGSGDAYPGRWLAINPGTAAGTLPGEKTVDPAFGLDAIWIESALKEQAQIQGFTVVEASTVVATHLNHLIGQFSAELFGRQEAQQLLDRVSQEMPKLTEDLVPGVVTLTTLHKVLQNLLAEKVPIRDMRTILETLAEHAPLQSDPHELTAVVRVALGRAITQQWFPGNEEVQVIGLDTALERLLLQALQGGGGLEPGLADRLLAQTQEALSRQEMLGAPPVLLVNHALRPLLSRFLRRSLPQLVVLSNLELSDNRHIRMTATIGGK

B1: His-St-FliP (Salmonella FliP with a hexahistidine tag inserted between Gln-22 and Leu-23) (natural protein)
chain: QLPGLISQPLAGGGQSWSLSVQTLVFITSLTFLPAILLMMTSFTRIIIVFGLLRNALGTPSAPPNQVLLGLALFLTFFIMSPVIDKIYVDAYQPFSEQKISMQEALDKGAQPLRAFMLRQTREADLALFARLANSGPLQGPEAVPMRILLPAYVTSELKTAFQIGFTIFIPFLIIDLVIASVLMALGMMMVPPATIALPFKLMLFVLVDGWQLLMGSLAQSFYS
notes: FliP, Salmonella enterica, 25-kDa transmembrane protein; mature form studied; the signal peptide (Met-1 to Gln-22) is cleaved during membrane insertion; tag LHHHHHH inserted between Gln-22 and Leu-23; Hexameric ring in SEC peak 2; also called His-FliP; FliP6 ring; source: Salmonella SJW1368, membranes solubilised with 1% DDM or 1% LMNG; purified (Ni-NTA, SEC); not shown: His6 (LHHHHHH), internal …
B2: HA-FliQ (natural protein)
chain: MTPESVMMMGTEAMKVALALAAPLLLVALITGLIISILQAATQINEMTLSFIPKIVAVFIAIIVAGPWMLNLLLDYVRTLFSNLPYIIG
notes: FliQ, Salmonella enterica, transmembrane export gate protein; source: Salmonella SJW1368, pTrc99A-based plasmid, in DDM- or LMNG-solubilised membranes; co-purified

Key:
[1] = molecular target: the molecule itself; experiment: SEC; Ni-purified His-FliP or FliO/His-FliP complexes (wild type and mutants) on Superdex 200 10/300; 20 mM Tris-HCl pH 8.0, 300 mM NaCl, 2 mM EDTA, 5% glycerol, 0.1% DDM
[2] = molecular target: T1, FliR-FLAG; experiment: pull-down; copurification from Salmonella SJW1368 co-expressing His-FliP with other export gate proteins; membranes solubilised with 1% DDM; Ni affinity, then anti-FLAG M2 affinity (eluted with FLAG peptide), then SEC on Superdex 200 10/300; SDS-PAGE with CBB; conditions: partners not purified
[3] = molecular target: T2, FlhB; experiment: as above; conditions: partners not purified
[4] = molecular target: the molecule itself; experiment: negative-stain electron microscopy with 2D class averaging; purified SEC peak fractions, 1.0% uranyl acetate, 100 kV; autocorrelation analysis for the rotational symmetry of the FliP ring
[5] = molecular target: T3, FlhA; experiment: pull-down; Ni-NTA copurification with His-FliP from SJW1368 co-expressing FlhA, FlhB, FliO, His-FliP, HA-FliQ and FliR-FLAG; membranes solubilised with 1% LMNG; immunoblot (lane L of Fig 6B); conditions: partners not purified
[6] = molecular target: B1; experiment: as above; conditions: partners not purified

Row | Binder | stoichiometry N [1] | binding result [2] | binding result [3] | stoichiometry N [4] | binding result [5] | binding result [6]
1 | B1 | 2 | binds | binds | 6 | binds | 
2 | B2 |  |  |  |  |  | binds
